T1: GRIP1_7, Q9Y3R0
T1 sequence (Q9Y3R0 999-1096, limits assumed, looked up): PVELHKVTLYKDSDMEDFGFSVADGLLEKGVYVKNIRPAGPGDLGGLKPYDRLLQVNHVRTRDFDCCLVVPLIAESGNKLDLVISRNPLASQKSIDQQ

T2: TJP3_3, O95049
T2 sequence (O95049 375-456, limits assumed, looked up): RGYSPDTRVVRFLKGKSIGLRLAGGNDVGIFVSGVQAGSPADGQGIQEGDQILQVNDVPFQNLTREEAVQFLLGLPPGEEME

T3: DFNB31_2, Q9P202
T3 sequence (Q9P202 274-371, limits assumed, looked up): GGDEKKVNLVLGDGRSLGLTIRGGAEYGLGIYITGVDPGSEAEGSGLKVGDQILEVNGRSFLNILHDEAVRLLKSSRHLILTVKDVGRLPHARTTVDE

T4: MPDZ_10, O75970
T4 sequence (O75970 1624-1722, limits assumed, looked up): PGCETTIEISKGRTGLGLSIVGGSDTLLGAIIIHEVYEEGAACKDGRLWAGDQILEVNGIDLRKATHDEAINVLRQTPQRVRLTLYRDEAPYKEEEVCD

T5: RHPN1, Q8TCX5
T5 sequence (Q8TCX5 508-602, limits assumed, looked up): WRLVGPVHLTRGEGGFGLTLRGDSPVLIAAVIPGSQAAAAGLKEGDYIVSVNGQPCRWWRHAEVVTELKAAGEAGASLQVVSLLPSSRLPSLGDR

T6: MPDZ_12, O75970
T6 sequence (O75970 1857-1958, limits assumed, looked up): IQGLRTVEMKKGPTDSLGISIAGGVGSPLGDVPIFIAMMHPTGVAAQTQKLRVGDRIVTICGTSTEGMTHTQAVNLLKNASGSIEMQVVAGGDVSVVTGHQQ

T7: LRRC7, Q96NW7
T7 sequence (Q96NW7 1440-1537, limits assumed, looked up): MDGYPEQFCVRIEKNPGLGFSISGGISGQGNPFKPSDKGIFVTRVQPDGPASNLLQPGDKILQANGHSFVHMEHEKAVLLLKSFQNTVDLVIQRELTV

T8: PTPN13_1, Q12923
T8 sequence (Q12923 1088-1188, limits assumed, looked up): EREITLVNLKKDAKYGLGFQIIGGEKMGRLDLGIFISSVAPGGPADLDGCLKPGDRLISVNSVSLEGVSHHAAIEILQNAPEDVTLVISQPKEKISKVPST

T9: SYNJ2BP, P57105
T9 sequence (P57105 8-110, limits assumed, looked up): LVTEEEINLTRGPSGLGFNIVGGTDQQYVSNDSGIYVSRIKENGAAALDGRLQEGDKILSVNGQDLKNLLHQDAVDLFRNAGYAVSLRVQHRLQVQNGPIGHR

T10: NHERF3_1, Q5T2W1
T10 sequence (Q5T2W1 4-100, limits assumed, looked up): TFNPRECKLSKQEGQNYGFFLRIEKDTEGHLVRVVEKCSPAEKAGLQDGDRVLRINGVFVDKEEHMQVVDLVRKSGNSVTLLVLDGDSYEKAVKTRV

T11: SNTA1, Q13424
T11 sequence (Q13424 82-180, limits assumed, looked up): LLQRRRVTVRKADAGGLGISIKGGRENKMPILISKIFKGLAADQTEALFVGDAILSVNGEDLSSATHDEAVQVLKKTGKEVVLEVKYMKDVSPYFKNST

T12: APBA2_1, Q99767
T12 sequence (Q99767 563-664, limits assumed, looked up): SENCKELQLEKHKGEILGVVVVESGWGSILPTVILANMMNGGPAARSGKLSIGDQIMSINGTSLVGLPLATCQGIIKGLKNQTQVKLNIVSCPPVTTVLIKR

T13: APBA3_1, O96018
T13 sequence (O96018 389-490, limits assumed, looked up): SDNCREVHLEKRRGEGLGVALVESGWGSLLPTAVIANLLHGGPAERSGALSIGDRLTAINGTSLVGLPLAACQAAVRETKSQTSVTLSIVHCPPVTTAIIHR

B1: KLHDC7A, Q5VTJ3 (peptide)
chain: PTPDLPQTRV
B2: CLDN4, O14493 (peptide)
chain: ARSAAASNYV
B3: FAM110D, Q8TAY7 (peptide)
chain: ARGPPRESEV
B4: CACNG8, Q8WXS5 (peptide)
chain: NTLNRKTTPV

Assays:
Test in all cases: holdup assay
Parameters in all cases: key: below the threshold = too weak to quantify, mostly under pKd 3.1 to 4
Conditions in all cases: plain residues with an end cap or a label only (N-terminal biotin on a linker: ado-ado)
DLG1_3, Q12959 = biological target: DLG1_3, Q12959
GRIP1_7, Q9Y3R0 = biological target: T1, GRIP1_7, Q9Y3R0
TJP3_3, O95049 = biological target: T2, TJP3_3, O95049
DLG1_1, Q12959 = biological target: DLG1_1, Q12959
DFNB31_2, Q9P202 = biological target: T3, DFNB31_2, Q9P202
LNX1_3, Q8TBB1 = biological target: LNX1_3, Q8TBB1
Sequence of LNX1_3, Q8TBB1 (Q8TBB1 500-596): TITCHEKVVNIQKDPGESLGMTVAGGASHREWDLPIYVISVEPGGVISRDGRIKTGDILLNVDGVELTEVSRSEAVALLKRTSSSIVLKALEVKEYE

MPDZ_10, O75970 = biological target: T4, MPDZ_10, O75970
GRIP2_7, Q9C0E4 = biological target: GRIP2_7, Q9C0E4
Sequence of GRIP2_7, Q9C0E4 (Q9C0E4 934-1023): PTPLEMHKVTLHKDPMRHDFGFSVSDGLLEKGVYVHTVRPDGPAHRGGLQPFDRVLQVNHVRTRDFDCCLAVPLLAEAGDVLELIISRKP

RHPN1, Q8TCX5 = biological target: T5, RHPN1, Q8TCX5
PDZRN4_1, Q6ZMN7 = biological target: PDZRN4_1, Q6ZMN7
Sequence of PDZRN4_1, Q6ZMN7 (Q6ZMN7 213-318): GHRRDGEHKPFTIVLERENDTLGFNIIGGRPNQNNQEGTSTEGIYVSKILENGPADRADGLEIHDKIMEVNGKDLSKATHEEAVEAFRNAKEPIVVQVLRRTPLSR

MPDZ_12, O75970 = biological target: T6, MPDZ_12, O75970
LRRC7, Q96NW7 = biological target: T7, LRRC7, Q96NW7
NHERF4_4, Q86UT5 = biological target: NHERF4_4, Q86UT5
Sequence of NHERF4_4, Q86UT5 (Q86UT5 464-550): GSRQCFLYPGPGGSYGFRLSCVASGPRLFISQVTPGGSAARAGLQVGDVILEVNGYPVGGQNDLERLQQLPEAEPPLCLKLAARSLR

MAGI2_2, Q86UL8 = biological target: MAGI2_2, Q86UL8
Sequence of MAGI2_2, Q86UL8 (Q86UL8 410-522): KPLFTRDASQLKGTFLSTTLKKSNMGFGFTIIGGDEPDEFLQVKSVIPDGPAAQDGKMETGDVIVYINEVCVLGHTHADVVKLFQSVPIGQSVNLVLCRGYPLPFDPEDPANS

PTPN13_1, Q12923 = biological target: T8, PTPN13_1, Q12923
SYNJ2BP, P57105 = biological target: T9, SYNJ2BP, P57105
NHERF3_1, Q5T2W1 = biological target: T10, NHERF3_1, Q5T2W1
SNTA1, Q13424 = biological target: T11, SNTA1, Q13424
CASK, O14936 = biological target: CASK, O14936
Sequence of CASK, O14936 (O14936 487-570): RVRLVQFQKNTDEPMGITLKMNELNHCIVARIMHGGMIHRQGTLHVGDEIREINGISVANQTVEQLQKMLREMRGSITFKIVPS

DLG1_2, Q12959 = biological target: DLG1_2, Q12959
APBA2_1, Q99767 = biological target: T12, APBA2_1, Q99767
Inadl_5, Q8NI35 = biological target: Inadl_5, Q8NI35
Sequence of Inadl_5, Q8NI35 (Q8NI35 673-780): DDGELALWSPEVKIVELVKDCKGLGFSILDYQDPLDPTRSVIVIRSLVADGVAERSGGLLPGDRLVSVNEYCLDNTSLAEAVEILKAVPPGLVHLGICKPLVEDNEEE

MAGI2_4, Q86UL8 = biological target: MAGI2_4, Q86UL8
Sequence of MAGI2_4, Q86UL8 (Q86UL8 772-865): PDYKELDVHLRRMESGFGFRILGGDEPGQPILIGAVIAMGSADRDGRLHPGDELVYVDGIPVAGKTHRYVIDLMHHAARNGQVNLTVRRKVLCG

MAGI1_2, Q96QZ7 = biological target: MAGI1_2, Q96QZ7
Sequence of MAGI1_2, Q96QZ7 (Q96QZ7 456-580): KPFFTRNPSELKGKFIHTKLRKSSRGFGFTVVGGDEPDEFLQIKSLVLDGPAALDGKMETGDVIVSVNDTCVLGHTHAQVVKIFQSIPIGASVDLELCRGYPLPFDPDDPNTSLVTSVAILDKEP

APBA3_1, O96018 = biological target: T13, APBA3_1, O96018

| Binder | pKd (DLG1_3, Q12959) | pKd (GRIP1_7, Q9Y3R0) | pKd (TJP3_3, O95049) | pKd (DLG1_1, Q12959) | pKd (DFNB31_2, Q9P202) | pKd (LNX1_3, Q8TBB1) | pKd (MPDZ_10, O75970) | pKd (GRIP2_7, Q9C0E4) | pKd (RHPN1, Q8TCX5) | pKd (PDZRN4_1, Q6ZMN7) | pKd (MPDZ_12, O75970) | pKd (LRRC7, Q96NW7) | pKd (NHERF4_4, Q86UT5) | pKd (MAGI2_2, Q86UL8) | pKd (PTPN13_1, Q12923) | pKd (SYNJ2BP, P57105) | pKd (NHERF3_1, Q5T2W1) | pKd (SNTA1, Q13424) | pKd (CASK, O14936) | pKd (DLG1_2, Q12959) | further results |
| --- | --- | --- | --- | --- | --- | --- | --- | --- | --- | --- | --- | --- | --- | --- | --- | --- | --- | --- | --- | --- | --- |
| B1 | below the threshold | below the threshold | below the threshold | below the threshold | 3.69 | below the threshold | 3.52 | below the threshold | 4.32 | 3.59 | below the threshold | below the threshold | below the threshold | 3.86 | below the threshold | below the threshold | 4.36 | 4.81 | below the threshold | 3.53 | pKd (APBA2_1, Q99767): below the threshold; pKd (Inadl_5, Q8NI35): below the threshold; pKd (MAGI2_4, Q86UL8): below the threshold; pKd (MAGI1_2, Q96QZ7): below the threshold; pKd (APBA3_1, O96018): below the threshold |
| B2 | below the threshold | below the threshold | 3.65 | below the threshold | below the threshold | below the threshold | below the threshold | below the threshold | below the threshold | 3.66 | below the threshold | below the threshold | 3.92 | 3.6 | below the threshold | 3.85 | 4.48 | 3.63 | below the threshold | below the threshold | pKd (APBA2_1, Q99767): below the threshold; pKd (Inadl_5, Q8NI35): 3.68; pKd (MAGI2_4, Q86UL8): 3.65; pKd (MAGI1_2, Q96QZ7): below the threshold; pKd (APBA3_1, O96018): below the threshold |
| B3 | 4.36 | below the threshold | below the threshold | 4.7 | 3.57 | below the threshold | below the threshold | below the threshold | 3.76 | 4.4 | below the threshold | 4.15 | below the threshold | 4.56 | below the threshold | 5.35 | 4.03 | 5.27 | below the threshold | 5.48 | pKd (APBA2_1, Q99767): below the threshold; pKd (Inadl_5, Q8NI35): below the threshold; pKd (MAGI2_4, Q86UL8): 4.09; pKd (MAGI1_2, Q96QZ7): 4.32; pKd (APBA3_1, O96018): below the threshold |
| B4 | 4.33 | 3.49 | below the threshold | 4.32 | below the threshold | below the threshold | 3.84 | below the threshold | below the threshold | 3.63 | below the threshold | below the threshold | 3.99 | 4.93 | below the threshold | 4.85 | 3.48 | 3.93 | below the threshold | 5.05 | pKd (APBA2_1, Q99767): below the threshold; pKd (Inadl_5, Q8NI35): below the threshold; pKd (MAGI2_4, Q86UL8): 3.69; pKd (MAGI1_2, Q96QZ7): 4.64; pKd (APBA3_1, O96018): below the threshold |
